From article PMC2905227 (Journal of the American Chemical Society, 2010) come the findings set out here.

Assay in all cases: competitive inhibition of enzyme activity
In assay [1] the target is T1, [NO2Y730]-α2(Y731A) (E. coli, UniProt P00452 1-761, Y731A, 3-nitrotyrosine (NO2Y) in place of Y730).
T1 sequence (looked up): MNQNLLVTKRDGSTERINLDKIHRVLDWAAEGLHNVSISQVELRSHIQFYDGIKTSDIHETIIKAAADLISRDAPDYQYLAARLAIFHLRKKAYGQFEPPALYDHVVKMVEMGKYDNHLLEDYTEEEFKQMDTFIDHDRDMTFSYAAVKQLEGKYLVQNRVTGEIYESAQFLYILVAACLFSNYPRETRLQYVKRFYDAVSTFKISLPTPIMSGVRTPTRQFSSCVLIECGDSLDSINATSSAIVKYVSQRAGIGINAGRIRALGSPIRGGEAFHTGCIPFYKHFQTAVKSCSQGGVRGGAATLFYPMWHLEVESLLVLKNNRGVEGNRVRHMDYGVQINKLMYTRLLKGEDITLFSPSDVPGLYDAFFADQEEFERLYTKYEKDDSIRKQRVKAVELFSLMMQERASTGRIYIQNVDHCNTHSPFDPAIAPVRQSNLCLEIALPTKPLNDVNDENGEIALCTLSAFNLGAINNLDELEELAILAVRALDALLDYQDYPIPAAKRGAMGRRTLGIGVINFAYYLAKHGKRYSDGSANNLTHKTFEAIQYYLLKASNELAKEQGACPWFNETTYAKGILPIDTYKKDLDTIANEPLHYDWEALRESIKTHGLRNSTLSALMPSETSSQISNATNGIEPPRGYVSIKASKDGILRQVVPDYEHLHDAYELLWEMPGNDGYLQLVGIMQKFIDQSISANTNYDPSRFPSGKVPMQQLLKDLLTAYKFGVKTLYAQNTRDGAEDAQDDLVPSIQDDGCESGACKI

The target in assay [2] is T2, [NO2Y731]-α2(Y730F) (E. coli, UniProt P00452 1-761, Y730F, 3-nitrotyrosine (NO2Y) in place of Y731).
T2 sequence (looked up): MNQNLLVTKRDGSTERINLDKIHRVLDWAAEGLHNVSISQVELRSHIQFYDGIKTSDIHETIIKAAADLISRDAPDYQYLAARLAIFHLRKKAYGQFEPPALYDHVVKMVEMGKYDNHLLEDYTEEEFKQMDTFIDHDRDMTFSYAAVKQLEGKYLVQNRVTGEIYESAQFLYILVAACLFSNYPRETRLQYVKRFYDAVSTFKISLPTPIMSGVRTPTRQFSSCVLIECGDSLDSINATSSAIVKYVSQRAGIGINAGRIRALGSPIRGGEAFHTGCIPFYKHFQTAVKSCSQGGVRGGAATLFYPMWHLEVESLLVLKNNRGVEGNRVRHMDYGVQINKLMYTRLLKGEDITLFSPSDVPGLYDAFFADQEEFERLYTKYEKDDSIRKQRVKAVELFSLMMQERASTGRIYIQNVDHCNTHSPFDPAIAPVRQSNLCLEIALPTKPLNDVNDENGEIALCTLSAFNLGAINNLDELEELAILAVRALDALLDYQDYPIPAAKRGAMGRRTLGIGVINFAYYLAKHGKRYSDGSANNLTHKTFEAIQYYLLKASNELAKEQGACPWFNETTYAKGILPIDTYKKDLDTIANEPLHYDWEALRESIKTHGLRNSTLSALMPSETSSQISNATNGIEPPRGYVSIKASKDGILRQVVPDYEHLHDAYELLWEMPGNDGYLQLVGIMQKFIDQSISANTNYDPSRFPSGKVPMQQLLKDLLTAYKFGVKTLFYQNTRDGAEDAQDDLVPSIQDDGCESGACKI

The target of assay [3] is T3, [NO2Y730]-α2(C439A) (E. coli, UniProt P00452 1-761, C439A, 3-nitrotyrosine (NO2Y) in place of Y730).
T3 sequence (looked up): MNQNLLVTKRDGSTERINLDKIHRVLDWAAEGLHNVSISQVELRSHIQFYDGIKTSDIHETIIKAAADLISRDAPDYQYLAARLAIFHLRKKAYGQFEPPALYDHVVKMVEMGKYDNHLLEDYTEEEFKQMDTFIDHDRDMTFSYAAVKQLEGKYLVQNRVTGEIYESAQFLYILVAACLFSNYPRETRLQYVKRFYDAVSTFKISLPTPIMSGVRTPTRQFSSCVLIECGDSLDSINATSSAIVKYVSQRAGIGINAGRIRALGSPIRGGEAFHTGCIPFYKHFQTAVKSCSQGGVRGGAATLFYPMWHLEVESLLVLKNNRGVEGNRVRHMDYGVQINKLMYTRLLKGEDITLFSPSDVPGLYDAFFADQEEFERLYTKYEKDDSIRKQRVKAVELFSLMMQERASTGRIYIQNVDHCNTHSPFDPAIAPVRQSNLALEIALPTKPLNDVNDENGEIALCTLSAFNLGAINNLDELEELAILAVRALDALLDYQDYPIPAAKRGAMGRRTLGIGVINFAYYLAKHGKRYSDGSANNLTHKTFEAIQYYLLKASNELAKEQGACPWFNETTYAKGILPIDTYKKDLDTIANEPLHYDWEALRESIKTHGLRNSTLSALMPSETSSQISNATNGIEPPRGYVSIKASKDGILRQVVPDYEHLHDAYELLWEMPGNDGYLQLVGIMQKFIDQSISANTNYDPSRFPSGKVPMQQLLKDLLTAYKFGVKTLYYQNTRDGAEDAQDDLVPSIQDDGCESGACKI

B1: wild-type E. coli ribonucleotide reductase β2 subunit (enzyme, UniProt P69924 1-376, looked up)
chain: MAYTTFSQTKNDQLKEPMFFGQPVNVARYDQQKYDIFEKLIEKQLSFFWRPEEVDVSRDRIDYQALPEHEKHIFISNLKYQTLLDSIQGRSPNVALLPLISIPELETWVETWAFSETIHSRSYTHIIRNIVNDPSVVFDDIVTNEQIQKRAEGISSYYDELIEMTSYWHLLGEGTHTVNGKTVTVSLRELKKKLYLCLMSVNALEAIRFYVSFACSFAFAERELMEGNAKIIRLIARDEALHLTGTQHMLNLLRSGADDPEMAEIAEECKQECYDLFVQAAQQEKDWADYLFRDGSMIGLNKDILCQYVEYITNIRMQAVGLDLPFQTRSNPIPWINTWLVSDNVQVAPQEVEVSSYLVGQIDSEVDTDDLSNFQL
modifications: tyrosyl radical at Y122 (1-1.2 radicals per β2), diferric cluster
B1: the figures for the Kd in assay [1], in assay [2] and in assay [3] were 2710 ± 130 nM, 500 ± 40 nM and 2070 ± 70 nM, respectively.

Broadly, the Kd is the equilibrium constant for the complex coming apart.
